Data published in the supplement of paper PMC10567573.

B1: TEKT4 (parent)
chain: SEVEELNMSLTALREKLLEAEQSL

Variants of: B1
Assay: protein stability index of a GFP-peptide fusion (GPS, HEK-293T) (PSI 1-6); higher = more stable
Conditions: c terminus: a fixed tail appended
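Note: lentivirally expressed fusions sorted by FACS into six bins by GFP to DsRed ratio, PSI derived from sequencing read proportions per bin multiplied by bin number.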

Protein stability index of substitutions, site by site:
E4: V 2.58, K 2.24, D 2.63, Q 2.32, R 2.02, M 2.07, W 1.68, L 2.26, I 2.59, H 2.06, F 2.34, T 2.59, G 2.89, S 2.71, Y 1.99, C 2.29, P 2.73, N 3.12, A 1.86
V3: A 3.61, N 2.57, P 3.47, F 2.83, G 3.67, M 2.63, L 3.51, Q 3.4, I 3.16, T 2.99, S 3.29, Y 2.95, H 3.29, C 3.39, D 3.64, W 2.4, K 2.45, E 3.98, R 2.83
L18: I 2.39, V 3.94, W 2.86, R 3.67, Q 4.23, P 5.43, F 3.32, D 5.37, H 3.84, T 4.54, N 4.11, K 4.74, S 4.65, E 5.08, Y 3.92, M 2.71, C 4.07, G 4.45
L10: N 4.09, I 1.9, K 3.73, D 4.03, G 3.74, V 2.25, H 3.26, E 3.55, F 3.23, R 3.97, S 3.64, T 3.29, A 3.75, Q 4.14, C 3.15, W 2.68, M 2.64, Y 2.93
E5: K 2.6, R 2.35, L 2.43, A 2.37, H 2.72, D 2.63, W 1.79, N 2.63, C 2.31, G 2.73, S 3.06, I 1.95, M 2.22, F 2.76, P 2.63, Y 2.03, V 2.64, T 2.54, Q 2.72
T11: Y 1.81, N 3.02, R 3.1, K 3.15, P 3.31, M 2.51, A 3.49, V 2.36, G 3.02, Q 3.65, D 4.13, H 2.5, F 1.76, S 2.92, W 2.09, E 4.1, I 2.35, L 2.8, C 2.82
E2: P 3.14, W 1.98, Y 1.68, V 2.45, T 2.41, R 3.06, S 2.34, Q 2.69, N 2.55, M 2.74
E15: I 2.62, A 2.2, H 2.94, R 3.11, T 2.44, W 1.59, Y 2.15, C 2.24, N 2.54, V 2.3, F 2.27, L 2.1, P 3.76, G 3.04, Q 2.52, K 3.38, M 2.18, D 2.97, S 2.27
E19: T 3.6, H 3.26, I 2.31, D 3.49, Q 2.36, F 2.24, K 3.97, M 2.92, Y 2.62, R 2.78, V 3.66, C 3.04, P 4.07, N 3.71, S 3.41, W 2.26, L 2.39, A 2.69, G 3.95
N7: P 3.42, T 2.63, R 3.92, A 2.35, Q 2.67, W 2.1, V 1.95, F 1.89, L 2.31, D 3.24, S 2.97, C 2.48, M 2.31, E 2.56, K 2.84, H 2.43, G 2.94, I 3.09, Y 3.42
L6: E 4.33, K 3.75, S 3.71, G 3.95, V 3.58, I 2.76, Y 2.6, Q 3.51, M 3.47, T 3.02, P 3.99, R 2.87, W 2.95, D 4.41, A 3.81, F 3, C 3.71, H 3.31, N 3.89
L13: C 4.68, H 5.21, A 4.86, E 5.42, S 4.8, T 5.4, M 3.32, W 3.18, I 4.14, N 4.87, G 5.15, Q 4.47, D 5.55, Y 4.34, F 4.49, P 4.47, R 4.83, V 4.55, K 4.76
S9: C 2.6, H 3.28, Y 2.33, D 3.57, N 3.06, P 2.85, R 3.13, M 2.4, K 2.82, F 2.28, V 1.66, I 2.14, A 3, L 2.3, W 2.85, E 2.95, G 2.61, T 2.67
M8: T 3.25, S 2.81, E 3.29, A 2.9, Q 2.56, G 4.32, I 3.17, D 3.5, P 3.99, F 3.02, R 2.12, V 3.77, N 2.41, K 2.77, C 2.27, H 2.96, W 2.28, L 3.36, Y 2.37
L17: R 3.69, S 4.9, H 5.01, C 4.21, N 4.89, I 4.28, G 5.38, A 5.53, K 5.36, E 5.46, M 2.51, W 3.41, V 4.45, T 5.16, F 3.69, Y 4.05, D 5.26, P 5.42, Q 4.98
R14: D 5.52, N 4.79, C 3.37, F 2.42, Y 2.46, T 3.62, G 4.19, A 3.48, Q 3.99, W 2.58, L 2.05, S 4.41, I 2.83, M 2.02, K 3.94, V 2.07, H 3.87, P 5.3, E 4.63
A20: F 3.79, C 4, D 4.72, E 5.04
K16: E 3.19, A 3.42, R 3.06, H 2.83, I 2.92, L 2.85, V 3.11, C 3.24, G 3.58, W 3.27, Q 2.83, N 1.72, D 4.25, T 2.83, M 2.26, S 3.74, P 5.38, Y 2.67, F 1.99
A12: W 2.56, Q 2.29, P 4.15, N 1.73, C 2.15, K 3.17, G 2.56, D 3.48, R 2.54, S 2.46, M 1.9, Y 2.47, L 2.27, H 2.76, T 2.3, I 2.36, E 2.38, F 2.37, V 3.06
